The Kd is the free concentration of one partner at which half of the binding sites on the other are occupied at equilibrium, for simple one-to-one binding. The low end stands for a tighter complex, the high end for a looser complex. The koff is the rate constant with which the complex falls apart. Low readings indicate a long-lived complex, high ones a short-lived complex. In general, kon refers to the rate constant with which the complex forms. The low end stands for slow association, the high end for fast association. One may read the EC50 as the concentration at which the effect is half-maximal. Higher therefore signals a less potent agent.

The record followed here is patent publication US20240207432A1 (BIOSION, published 2024).

Substitutions are numbered along the chain they refer to.

The target of assay [1] is T1, human TROP2-his protein (human, UniProt P09758 27-274).
T1 construct: Biotin-labelled in the ELISAs, unlabelled analyte in Biacore; also called biotin-labeled human TROP2-his protein; biotin human Trop2-his
T1 sequence: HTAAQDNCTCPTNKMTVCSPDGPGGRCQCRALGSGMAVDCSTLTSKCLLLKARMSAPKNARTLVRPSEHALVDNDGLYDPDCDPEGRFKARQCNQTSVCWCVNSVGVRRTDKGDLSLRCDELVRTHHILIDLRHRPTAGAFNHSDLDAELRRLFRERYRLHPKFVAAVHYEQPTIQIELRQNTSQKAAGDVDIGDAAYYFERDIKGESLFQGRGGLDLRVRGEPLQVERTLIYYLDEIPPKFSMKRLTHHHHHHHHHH
As to the kind of experiment: SPR Biacore T200, supernatant antibody captured on anti-human IgG CM5 chip, 40 nM human TROP2-his. The method, then: The goat anti-human IgG (GE healthcare, Cat #BR100839, Human Antibody Capture Kit) was covalently linked to a CM5 chip instead of goat anti-mouse IgG. […] The human TROP2-his protein at the concentration of 40 nM was used instead of serially diluted human TROP2-his protein.

Assay [2] concerns the target T2, full length human TROP2 on 293F-TROP2 cells (human, UniProt P09758 27-323).
T2 construct: also called 293F-TROP2 cells (clone ID #3A8); cell surface TROP2
T2 sequence: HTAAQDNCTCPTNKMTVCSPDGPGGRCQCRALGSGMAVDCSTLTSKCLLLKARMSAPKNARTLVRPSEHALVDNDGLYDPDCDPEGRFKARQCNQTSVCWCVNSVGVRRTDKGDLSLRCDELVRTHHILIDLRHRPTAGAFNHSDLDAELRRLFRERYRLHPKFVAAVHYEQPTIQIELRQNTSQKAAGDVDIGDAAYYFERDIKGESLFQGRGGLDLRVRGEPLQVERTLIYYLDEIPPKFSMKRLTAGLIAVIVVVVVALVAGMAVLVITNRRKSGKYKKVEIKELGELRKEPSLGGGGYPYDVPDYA
Briefly: FACS on 293F-TROP2 cells, MFI.

Assay [3] has as its target T3, cynomolgus TROP2-his protein (cynomolgus monkey, UniProt P09758 27-272 (human entry), limits assumed).
T3 construct: no cleavage site is stated; also called Cynomolgus monkey TROP2-his protein; monkey TROP2
T3 chain: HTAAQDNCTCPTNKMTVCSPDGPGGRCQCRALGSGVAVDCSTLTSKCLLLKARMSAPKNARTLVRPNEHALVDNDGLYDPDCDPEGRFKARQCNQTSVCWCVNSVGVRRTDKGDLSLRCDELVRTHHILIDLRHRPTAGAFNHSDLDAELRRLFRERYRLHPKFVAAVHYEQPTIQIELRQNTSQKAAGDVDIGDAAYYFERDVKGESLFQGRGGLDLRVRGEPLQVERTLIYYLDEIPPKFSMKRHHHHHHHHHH
As to the kind of experiment: indirect ELISA, cynomolgus TROP2-his coated, OD(450-630). In general terms: ELISA stands for enzyme-linked immunosorbent assay.

Assay [4] deals with T1, human TROP2-his protein. As to the kind of experiment: capture ELISA, antibody captured on anti-human IgG Fc coat, biotin human TROP2-his in solution, OD(450-630). As to the method:
Plates were washed once with wash buffer (PBS+0.05% v/v Tween-20, PBST) and then blocked with 200 μl/well blocking buffer (5% w/v non-fatty milk in PBST) for 2 hours at 37° C. […] Plates containing captured anti-TROP2 antibodies were incubated with biotin-labeled human TROP2-his protein (prepared in house, SEQ ID NO: 67, 56.7 ng/mL in 2.5% w/v non-fatty milk in PBST, 100 μl/well) for 40 minutes at 37° C., washed 4 times, and incubated with streptavidin conjugated HRP (1:10000 dilution in PBST, Jackson Immuno Research, Cat #016-030-084, 100 μl/well) for 40 minutes at 37° C. After a final wash, plates were incubated with 100 μl/well ELISA substrate TMB (Innoreagents, Cat #TMB-S-002) at room temperature. The reaction was stopped in 3-10 minutes at room temperature with 50 μl/well 1M H₂SO₄, and the absorbance of each well was read on a microplate reader using dual wavelength mode with 450 nm for TMB and 630 nm as the reference wavelength. The OD (450-630) values were plotted against antibody concentration. Data was analyzed using Graphpad Prism software and EC₅₀ values were reported.
For the capture ELISA, AffiniPure Goat Anti-Human IgG, Fcγ fragment specific (Jackson Immuno Research, Cat #109-005-098) was used instead of AffiniPure Goat Anti-Mouse IgG, Fcγ fragment specific, 100 μl/well.

Assay [5] addresses T1, human TROP2-his protein. As to the kind of experiment: SPR Biacore, antibody captured on anti-human IgG CM5 chip, TROP2-his analyte. As to the method: Un-reacted moieties on the chip (biosensor) surface were blocked with ethanolamine. […] The antigen-antibody association kinetics was followed for 2 minutes and the dissociation kinetics was followed for 10 minutes. The association and dissociation curves were fit to a 1:1 Langmuir binding model using BIAcore evaluation software.

B1: huA1E4F7D4-V2 (antibody, human IgG1, kappa, V domains shown)
VH: QVQLVQSGAEVKKPGASVKVSCKASGYSFTTHWIHWVRQAPGQGLEWIGTIFPSNAYAVYNQKFRDRATMTADRSISTAYIELSRLRSDDTAVYYCARASYFDYWGQGTTVTVSS
VL: EIVLTQSPATLSLSPGERATLSCRASQNIGTSIHWFQQKPGGSPRLLIKYASESISGIPSRFSGSGSGTDFTLTISSLEPEDFAVYYCQHSHSWPFTFGQGTKLEIKR
notes: Positions of the X residues are printed in CLM-00002, CLM-00003 and CLM-00005; Tested as cell supernatant
As for B1, in the assay with human TROP2-his protein [1], the dissociation constant Kd was 0.215 nM, the koff is 0.000188 s⁻¹ and the kon was found to be 874000 M⁻¹ s⁻¹.

B2: huA1E4F7D4-V21 (antibody, human IgG1, kappa, V domains shown)
VH: B1 VH with R74T
VL: B1 VL with K49Y
notes: Positions of the X residues are given in the claims; Tested as cell supernatant
In the assay with human TROP2-his protein [1], B2 came in with a Kd of 0.188 nM, an off-rate (koff) of 0.000271 s⁻¹ and an on-rate constant (kon) of 1.44e+06 M⁻¹ s⁻¹.

B3: huA1E4F7D4-V15 (antibody, human IgG1, kappa, V domains shown)
VH: B1 VH with A72R
VL: B1 VL with S43A
notes: as for B2
B3: in the assay with human TROP2-his protein [1], the Kd turned out to be 0.359 nM, the dissociation rate constant (koff) stood at 0.000205 s⁻¹ and the on-rate constant (kon) turned out to be 571000 M⁻¹ s⁻¹.

B4: huA1E4F7D4-V17 (antibody, human IgG1, kappa, V domains shown)
VH: B1 VH
VL: B1 VL with K49Y
notes: as for B2
With B4, in the assay with human TROP2-his protein [1], the Kd amounted to 0.232 nM, the koff was 0.000279 s⁻¹ and the kon stood at 1.2e+06 M⁻¹ s⁻¹.

B5: huA1E4F7D4-V12 (antibody, human IgG1, kappa, V domains shown)
VH: B1 VH
VL: B1 VL with S43A
notes: as for B2
In the assay with human TROP2-his protein [1], B5 registered a dissociation constant Kd of 0.211 nM, a dissociation rate constant (koff) of 0.000192 s⁻¹ and an on-rate (kon) of 909000 M⁻¹ s⁻¹.

B6: huA1E4F7D4-V9 (antibody, human IgG1, kappa, V domains shown)
VH: B1 VH with A68V
VL: B1 VL with G42Q
notes: as for B2
B6: in the assay with human TROP2-his protein [1], the equilibrium dissociation constant (Kd) stood at 0.223 nM, the off-rate (koff) is 0.000193 s⁻¹ and the kon came to 865000 M⁻¹ s⁻¹.

B7: huA1E4F7D4-V10 (antibody, human IgG1, kappa, V domains shown)
VH: B1 VH with A72R
VL: B1 VL with G42Q
notes: as for B2
Turning to B7, in the assay with human TROP2-his protein [1], the affinity, expressed as Kd, was 0.314 nM; the koff worked out at 0.000206 s⁻¹; the kon was determined as 656000 M⁻¹ s⁻¹.

B8: huA1E4F7D4-V5 (antibody, human IgG1, kappa, V domains shown)
VH: B1 VH with A72R
VL: B1 VL
notes: as for B2
In the assay with human TROP2-his protein [1], B8 displayed a Kd of 0.353 nM, a koff of 0.000204 s⁻¹ and an on-rate (kon) of 577000 M⁻¹ s⁻¹.

B9: huA1E4F7D4-V20 (antibody, human IgG1, kappa, V domains shown)
VH: B1 VH with A72R
VL: B1 VL with K49Y
notes: as for B2
As for B9, in the assay with human TROP2-his protein [1], the affinity, expressed as Kd, was 0.335 nM; the koff came out at 0.00029 s⁻¹; the on-rate (kon) turned out to be 868000 M⁻¹ s⁻¹.

B10: huA1E4F7D4-V18 (antibody, human IgG1, kappa, V domains shown)
VH: B1 VH with S28T
VL: B1 VL with K49Y
notes: as for B2
In the assay with human TROP2-his protein [1], B10 registered a Kd of 0.23 nM, a koff of 0.00028 s⁻¹ and a kon of 1.22e+06 M⁻¹ s⁻¹.

B11: huA1E4F7D4-V8 (antibody, human IgG1, kappa, V domains shown)
VH: B1 VH with S28T
VL: B1 VL with G42Q
notes: as for B2
In the assay with human TROP2-his protein [1], B11 came in with an equilibrium dissociation constant (Kd) of 0.235 nM, a koff of 0.000195 s⁻¹ and a kon of 832000 M⁻¹ s⁻¹.

B12: huA1E4F7D4-V7 (antibody, human IgG1, kappa, V domains shown)
VH: B1 VH
VL: B1 VL with G42Q
notes: as for B2
For B12, in the assay with human TROP2-his protein [1], the affinity, expressed as Kd, was 0.216 nM; the koff came out at 0.000192 s⁻¹; the kon was found to be 887000 M⁻¹ s⁻¹.

B13: huA1E4F7D4-V11 (antibody, human IgG1, kappa, V domains shown)
VH: B1 VH with R74T
VL: B1 VL with G42Q
notes: as for B2
In the assay with human TROP2-his protein [1], B13 displayed an equilibrium dissociation constant (Kd) of 0.163 nM, a dissociation rate constant (koff) of 0.000175 s⁻¹ and a kon of 1.08e+06 M⁻¹ s⁻¹.

B14: huA1E4F7D4-V13 (antibody, human IgG1, kappa, V domains shown)
VH: B1 VH with S28T
VL: B1 VL with S43A
notes: as for B2
In the case of B14, in the assay with human TROP2-his protein [1], the equilibrium dissociation constant (Kd) was 0.221 nM, the koff is 0.000199 s⁻¹ and the kon is 898000 M⁻¹ s⁻¹.

B15: huA1E4F7D4-V1 (antibody, human IgG1, kappa, V domains shown)
VH: B1 VH with V37M, R38K, A40R, T69I, S84T
VL: B1 VL with E1D, V3L, L78V
notes: Positions of the X residues are printed in CLM-00003 and CLM-00005; Tested as cell supernatant
For the molecule B15, in the assay with human TROP2-his protein [1], the affinity, expressed as Kd, was 0.238 nM; the dissociation rate constant (koff) stood at 0.000197 s⁻¹; the kon came out at 830000 M⁻¹ s⁻¹.

B16: huA1E4F7D4-V6 (antibody, human IgG1, kappa, V domains shown)
VH: B1 VH with R74T
VL: B1 VL
notes: as for B2
For B16, in the assay with human TROP2-his protein [1], binding was put at a Kd of 0.166 nM, the off-rate constant (koff) was 0.000179 s⁻¹ and the on-rate constant (kon) came to 1.08e+06 M⁻¹ s⁻¹.

B17: huA1E4F7D4-V19 (antibody, human IgG1, kappa, V domains shown)
VH: B1 VH with A68V
VL: B1 VL with K49Y
notes: as for B2
In the assay with human TROP2-his protein [1], B17 registered a Kd of 0.261 nM, a koff of 0.000304 s⁻¹ and a kon of 1.16e+06 M⁻¹ s⁻¹.

B18: huA1E4F7D4-V14 (antibody, human IgG1, kappa, V domains shown)
VH: B1 VH with A68V
VL: B1 VL with S43A
notes: as for B2
On to B18, for which, in the assay with human TROP2-his protein [1], the Kd was found to be 0.232 nM, the koff stood at 0.000193 s⁻¹ and the association rate constant (kon) is 834000 M⁻¹ s⁻¹.

B19: huA1E4F7D4-V3 (antibody, human IgG1, kappa, V domains shown)
VH: B1 VH with S28T
VL: B1 VL
notes: as for B2
Take B19: in the assay with human TROP2-his protein [1], the Kd came to 0.238 nM, the koff was found to be 0.000199 s⁻¹ and the kon turned out to be 836000 M⁻¹ s⁻¹.

B20: huA1E4F7D4-V4 (antibody, human IgG1, kappa, V domains shown)
VH: B1 VH with A68V
VL: B1 VL
notes: as for B2
As to B20, in the assay with human TROP2-his protein [1], the dissociation constant (Kd) is 0.215 nM, the dissociation rate constant (koff) came to 0.00019 s⁻¹ and the kon amounted to 883000 M⁻¹ s⁻¹.

B21: chimeric C1B3B12D2 (antibody, human IgG1, kappa, V domains shown)
VH: QVQLQQSGPELVRPGTSVKMSCKAAGYTFTKFWIGWVKQRPGHGLEWIGNIYPGGAYINYNENFKGKATLTADTFSSTAYMQLNSLTSADSAIYYCAREGSSGYWGQGTTLTVSS
VL: DIVMTQSPSSLTVTAGEKVTLSCKCSQSLLNSGTQENYLTWYQQKPGQPPKMLIYWASIREPGVPDRFTGSGSGTDFTLTINNVQAEDLAVYYCQHDYSYPFTFGSGTKLEIKR
B21: the EC50 in assay [2] came to 0.81 nM; in assay [3], 0.26 nM; in the assay with human TROP2-his protein [4], 0.111 nM. Further, the Kd with human TROP2-his protein [5] turned out to be 0.125 nM. The molecule further returned a koff with human TROP2-his protein [5] of 9.54e-05 s⁻¹. In the assay with human TROP2-his protein [5], this molecule had a kon of 763000 M⁻¹ s⁻¹.
